Measurements published in the DeepSol protein solubility set.

Assay: soluble on expression in E. coli; label from the status in PepcDB or PDB records

Sequence	soluble on expression in E. coli
MHILVVGVDYKSAPIEIREKVSFQPNELAEAMVQLKEEKSILENIIVSTCNRTEIYAVVDQLHTGRYYIKKFLADWFQLSKEELSPFLTFYESDAAVEHLFRVACGLDSMVIGETQILGQVRDSFKTAQQEKTIGTIFNELFKQAVTVGKRTHAETDIGSNAVSVSYAAVELAKKIFGNLSSKHILILGAGKMGELAAENLHGQGIGKVTVINRTYLKAKELADRFSGEARSLNQLESALAEADILISSTGASEFVVSKEMMENANKLRKGRPLFMVDIAVPRDLDPALNDLEGVFLYDIDDLEGIVEANMKERRETAEKVELLIEETIVEFKQWMNTLGVVPVISALREKALAIQSETMDSIERKLPHLSTREKKLLNKHTKSIINQMLRDPILKVKELAADADSEEKLALFMQIFDIEEAAGRQMMKTVESSQKVHSFKKAESKAGFSPLVSE	not soluble
MDTELMKLDVHVTAWSRTPSSSGFLNSVMISRDRDFEEFIINDRDGSVTSLGSYQNPSRGPDPLIFLDFRNFEPNYVYQLLLSQFHDHVLSEHIADQIGYTFGTCNSPTSTTDLDQESEEEE	soluble
MDNVTSSQLLSVRHQLAESAGLPRDQHEFVSSQAPQSLRNRYNNLYSHTQRTLDMADMQHRYMTGASGINPGMLPHENVDDMRSAITDWSDMREALQHAMGIHADIVDYKDDDDK	soluble
MYFMEILTCIKQVPGTTSVEVDETTGVLKRDGVDSKMNPYDLYALETALRIKEDKKANLKVLSMGPPQAKKVIEESFMMGADEGALISDRRFGGADVLATSYTISQGIKKMGKVDLIICGKQTTDGDTAQVGPEVAEFLDIPHVTNVTKLIEVKDESIVVEIDMPNDLQVCEIEYPCLITVEKDIFQPRLPSFKLKLNTKDREIPVYSLDDFEDKNENNYGLNGSPTQVVRIFPPKPNTDKNIVRGNADELSFALVNKLEELKLV	not soluble
MLNSWPLAKDLQVLVEIVHSGSFSAAAATLGQTPAFVTKRIQILENTLATTLLNRSARGVALTESGQRCYEHALEILTQYQRLVDDVTQIKTRPEGMIRIGCSFGFGRSHIAPAITELMRNYPELQVHFELFDRQIDLVQDNIDLDIRINDEIPDYYIAHLLTKNKRILCAAPEYLQKYPQPQSLQELSRHDCLVTKERDMTHGIWELGNGQEKKSVKVSGHLSSNSGEIVLQWALEGKGIMLRSEWDVLPFLESGKLVQVLPEYAQSANIWAVYREPLYRSMKLRVCVEFLAAWCQQRLGKPDEGYQVM	soluble
MTEFQLEKAATLKTIAIRAKKVGEMVDFYKKVMGFVLKSEENNLSIWGTREAGTQLLILEETRKAEDFHNEEKQMAYFSIKVPTEKEFLQIAQRVLEQDYPIDESFQIGTRQSMFITDLEGNQFEIFHDEATANSTSEKQPIVLKDLISEDLEPHQGLAAGSYLAHVQLKTNNQKEIKAYYEEVLGLKRNEKDQFVLEDGKATIGFQKPETSEVDQLPDPHLGLDFFTIKLSDQEHILAMEQQLTAKNQEFFIDQKKAIVTVFDPIGLEWWFVLK	not soluble
MAHHHHHHMRCFSTKSTAPTKGFHDNASGKGSNSVPVKSSALFIEALSKRRTIYSLGNKLSQSHSEVIEIIEGTIRECPSSFNIKSSTVVILFGADHQKVWDIVKAALKKVTSEEQYAQSEMKVNNSFAAGAGTILFYEDGAAIKMQQKAFPRYAANVSTFSQQSSAMAQFAVWSALAQDGIGASLQHYNELIEADLRAAFDVPEEWQLIAQMPFGSIETPADKKTRNSDKGRVVVHGAQR	soluble
MGSDKIHHHHHHMSEFYGAQHRQWQEHFDGVAMADRVRELIVLPSIPEEHAGFIGSRDFFFLSTIDHRGFPTCSYKGGQPGFVKILDDTTLAFPSLDGNSMYLSMGNLSLNPKIGMLFIDFETPHRIRVHGTASVKPDDTLLAEYQEAELIVRIKIEEIFVNCPRYIHKHQRVQHSPYVPQAGCTTRTPQWKRLDSVQDVLRQPDLEKVSRMGGPITIEEYMELVLQGDA	not soluble
MGSDKIHHHHHHMLIAQVTDIHLGFEPDSPDEFNRQRLDRVLAELAAMDPRPDLLLATGDLIDRGDRESYERLRDAFSNLPFPVHYALGNHDERETFSAVFPEAAFTDGFLQYIVDAGPLRIIVLDTLEEGRHGGAFCDVRARWLKARLDEAPDTRTLIVQHHPPVEVGIAWMNTDPAEPWVERLGQCLRGRTNVVGVVCGHIHRAITTAWEGTVVATCPSTAPQVALDLRPIDPDVPDQRNLIIADPPGYALHWFNGRELITHWDTAEDHQVLARYDANLQGMIQHMLAERPGAQAAE	not soluble
MGSDKIHHHHHHMRLPQKMFKIDTYLSPGEAFHFVRKELSEASPVLEHDHDYYELFLIQQGQVYHWINGLEEMLEPGHMVFVRPSDRHALQGAPGTGAKILNVMFRTQTAAHLVTRYADVFGGRFFWQPGPLPVTLRLHGPQRERAINSMLTLDTSFRNLARIELFLLSVMTHVLDTGEIVDGRAPGWLLQACHAAREPRVFRQGADGFLHAAGRSQAHVCRQARRYLGLSPTQYVNRIRIQHAAMLLAGTERGLPDIAADCGFENLSYFHRLFREQYGTTPRGYRHRHVRPIAPL	not soluble
MAHHHHHHMAVSINSQLKYVVNQAASVEADMNCVERVQHYTSNIEHEDLMEEIDEAIRALEKNDKKRRERKGDPITPAGITHDDDDTSTATVSVPLLEESHASDASPELSYSPADNNNHNDDNGRRENVAAGSLEFRDVTMRYRAGLPHVLCGLTFTIPAGQKVGVIGRTGSGKSSLLLTLLRVVDIEDGQIVLSGRPIRSYSLRALRQLFSMIPQDPLLFNGKVRENLDPLNVCSDAQVREAIRLVGMEDRLAAETDPLQCPVEEGGANFSVGQRQLLCMARTLLRRGCSFILMDEATANVDPTLDKQIQHVVTHVFAGHTVITIAHRLHTLATYDVILMMEEGRVVEMGSPYDLVRSADTRFAQMVRSLGESAMQEFMASTQAPTR	not soluble
MGSDKIHHHHHHMAHPLSRIIDQLKREPSRTGSIVITVFGDAIVPRGGSVWLGTLLEFFESLDIDSGVVRTAMSRLAADGWLTREKVGRNSFYRLADKGHQTFEAATRHIYDPPPSDWTGRFELLLINGEDRDASREALRNAGFGSPLPGVWVAPSGVPVPDEAAGAIRLEVSAEDDSGRRLLSASWPLDRTADAYLKFMKTFEPLRTAIGRGTTLSDADAFTARILLIHHYRRVVLRDPLLPESLLPADWPGRAARELCGEIYRALLAPSEQWLDGHGTNEKGPLPAARKLLERRFGA	not soluble
MYVVINIDPGSTLNELMAFMTQKTITFSVTDQLSRLCDRTANGDRREVCTQTDDNCFDPPPNKKSKGYNGEDYGSPCSSATPSEPVDLGILTKTNGNSNGNHNWDTESKVLRGLIRSENGRSKSSIKEEPEEASVEDDISTEYMQNQLMQALFPKNQNGSGLANFASLEDNESIEGESGGLSDLGGFNMDSSSPASAIRYKPAYASTKRGVCRVCNREVSLITTHRRRHAITHLGFKTLKCALCYKFFSRQDLATGHFKKDHPTSEFMPFVDTMSPEDERQLVVMMELCFPEETGPRKRKDTDPKKQKVGEVEDSF	not soluble
MGSDKIHHHHHHMNEAELLDPPLETPPRPAVKVRGEPLAELPQDLYIPPDALEVFLEAFEGPLDLLLYLIRKQNLDVLDIPMAALTQQYMAYVEAARATRLELAAEYLLMAAVLIDIKSRMLLPRREQADEPGEADDPRAELVRRLLEYEQMKRAGQQLDALPQAGRDFDTVSVFLPAAAKRLPSVHAEELAAAWLAILSRAKNRTHHRIGRQELSIREHMSRILKRLTPGEFMEFKELFPEASTVHELVVTFLAVLELSKETLLDVTQAEPFAPIYVKLHESAAE	not soluble
MKFGPIAIEEAEGAVLAHSTTAGEKRFRKAHRLSAEDISVLKRAGIVQVVAAVLSPDDLGEDAAAQRIAESMRFSGIEARPAATGRVNLHAKASGIFTVDAAMIDAINAVDPAITLATLAQHAPVEKGQMVATVKIIPFAVASTLVDTVVKICAGGEILAVNAYQPVRVGVIQTVLPGIKPSVLDKTLRVTEARLARSGGRLTAERRTPHEIAPVAEAAASLARDNDLVVIFGASAMSDFADVVPAAIERAGGTVVRAGMPVDPGNLLVLGTLGGKRIIGAPGCARSPKENGFDWVLDRLVAGLDVTAKDIAGMGVGGLLMEIPTRPQPREPLPAKSRLKVGIVLLAAGRSSRMGGPNKLLALFDGKPLVRRTAERALGSKASGTIVVTGHQRERVRAALSGLDVTFADNPDFANGLSTSLKAGIAYLPEDTAGAMIVLGDMPGVVSGDLDRLIDAFRKAGGNSVVRASHQGKRGNPVLLPRALFPAIAHLEGDTGARHLVEAEGLDVVDVEIGEGASVDVDTREALEGAGGVLQDLEHHHHHH	not soluble
MSDVTGDLAAVSEAKGGSDAARISEVKAWLTSQFEAVGKEVPNFEYTHRSITHLYNLATASQAKSQAATIVANDFRLKASEYRAQAARIREILESAGMSQESLPSNVVSSAQVLANVANLLNIRDTELSRILAQLEDDVVPCESQMENWKTNLEVMAVKEEQYIQQYKKYEMLLNRVGYTPKISHRELVEMAEHRKELDKMTKPVLDTLRSYQDLPPDKALAALAIEDKKRQFTAAEKYLEEVLQSALETNDE	soluble
MGSDKIHHHHHHAQNFSDYFEDKTLRADYIFTGDAKKQEVYLDELSSLPQWAGRKHHLAELPLAGNGEITMKDKATGETIYRTSFSSLFQEWVSEEEASRIKRGFENSFLLPYPKKEAVVTISLKDVYHKVNASLTHEIIPNDILIHQRGTNHITPHRYLLQNGNAADCIDVAIMAEGYTEKEMDIFYKDAQTACDALFSHEPFKKLKDKFNIVAVASPSEDSGVSIPGQGKWKSTAVSSHFNTFYSDRYLTTSRVKSIHNWLAGIPYEHIIILANTDTYGGGGIYNSYTLTTAHHPDFQPVVVHEFGHSFGGLADEYAYTETPSPQYPYEVEPWEPNITTLIDFDSKWKDMIPEGTAIPTPVATENADLYTKVGVYEGAGYTQKGLYRPTTECRMKINEAPAFCPVCQRALERLINFYTAK	not soluble
RIPVVGITGSKGMTTIARFVASLLTLSGRRTGLACSSGLYLDHRKIDHGNCANHKSARRILMNRTVEAAVFENGFDTMLEEGLPYDSCQVGIVTRIEPALHFAHQWIDTSEQVFKVLRTQVDVVSPTGGKREGDILPEIILPTGAAILNAQDPMLVQMADLCQGEVIYISCDPTLPVISVHRQEGTGPTRGKRAVTVRNWEILLIDGTAETILIRLDELQAKTGNHPVETAHLLAGVGAGWALGMSPDLIRTGLITFLQHQEKQSIVYQTF	not soluble
MGSDKIHHHHHHMNRTMSSINVLSLPVFNRDASGYDALRRGLIPCFDAFYGTALDLIDDWRDAEKLRVLDLGAGTGLFTAMLLTRHPDAQIHLIDASEKMLEQARKRFDGNPAITYAVADMANTELGGPWDLIISALAIHHLEDIGKKHLFGEIRGALSEGGLFVNVEQVLGHDPEVEARYARTWLQQVRRLGVAEVEIAKAHERMSHDRCSPLENQLQWMRDTGFCEIDCSFKAWRFAVLSGRR	not soluble
MATIGLDRLYYAKITENENGEETYATPVPLAKAITAELSVELAEATLYADDGAAEVVKEFQSGTLTLGVADIGVDAAEVLTGATLDDNKVLISTSEDGGAPVAIGFRAKKANGKYRYFWLYRVKFGIPATNLQTKGDSITFSTPTIEGTVMRRNKPDGLEHHHHHH	soluble
MGSDKIHHHHHHMLKKQLFADRLLAQMPSLRALRCFVTAARYESFTQAAEVLCVTQAAVSRQIKELEDSLDVALFERTGRHIALTDAGRILYNASYLSIMNIAEAAEAVRRTDKHALMICVSHTFSALWLSSRLPAFRERFPDIRLNLIVTEHFMELDGLIEPDVIITKNPPREPEFDVEPMFHDIVYPVCSPAFHERHFHGRSLKPLDLLSRPTLNLSMLGRAQVCEHVDWRVWRNWFQQGDGTDTLTENKYLESNDYRLLVAQAEAGEGTLLGWHHLVHRQIDQGILMRPVQDVLVFRDRHHYLITHRNAQPRPEYQQFRQWLNDEVGVMMRGWLDAGVEGEQ	not soluble
